# ± gives the uncertainty stated by the source.
# Experiment: amyloid nucleation score (Sup35N fusion, yeast selection) (log enrichment); library NNK1; higher = more nucleation; inactive = no reads after selection
# Summary of the method: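 Output and input plasmid inserts were sequenced by Illumina after psi-negative yeast carrying Sup35N fused to peptides of 20 random codons had been induced 24 hours with 100 μM copper sulfate and grown 7 days at 30°C on medium lacking adenine and uracil. The nucleation score is the DiMSum log enrichment of output over input reads, centred on the mode score of non-aggregating sequences. Sequences with under 100 input reads were excluded.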
row,Substance,amyloid nucleation score
1,PARSWNLLLSSYYAVFGCFY,-0.327 ± 0.74
2,PCRGL,-0.628 ± 2.1
3,PCSSFVNCKIMFLTLMDVVW,7.739 ± 0.056
4,PDFNPMSVVNGCSGSRWLNA,-0.676 ± 0.75
5,PDIRYAFVNFDYLATIWVNG,-1.86 ± 1.7
6,PDLTSCDVIVIWGFGRG,-0.118 ± 1
7,PDRRQSN,inactive
8,PEARWWERMDKGCMKVFHFK,0.945 ± 0.44
9,PECTNDKVY,0.541 ± 0.52
10,PETFLPTSRVPEMGKLDTLS,0.456 ± 0.22
11,PFLFVEIYDNGGSW,1.36 ± 0.37
12,PFLNVEHFVMVDRFIVPDI,0.559 ± 0.79
13,PFNQLDFTVAYYLSCAH,-0.482 ± 0.63
14,PFRVLWTCITG,-0.229 ± 1.4
15,PFTHHHKCLVHRLLCRLQHE,0.616 ± 0.79
16,PGCESARRLKLRVSLKLRGK,-0.731 ± 1.1
17,PGGYM,0.597 ± 0.52
18,PGMKISSFCYTTMNHYNKSF,-0.375 ± 1.2
19,PGRSTHDIRSGPAEYTDSVC,0.487 ± 0.63
20,PGSVDCTVGD,-0.048 ± 0.65
21,PGVNKVHLYKESIIYLLAVS,inactive
22,PHRFVN,-0.188 ± 0.3
23,PIFMVSLST,-0.661 ± 0.66
24,PIFSYFALFLGLIKHCIMSQ,-0.238 ± 0.53
25,PILSNLHIPMCPENVNGRGS,0.939 ± 0.33

row,Substance,amyloid nucleation score
1,PINYVDRIRYVCMWCLFVAF,inactive
2,PISMKQVKREEMGFTPAVSS,-0.352 ± 0.95
3,PITFS,0.448 ± 0.68
4,PKLRKLVSFYVSYIPGGGYG,-0.106 ± 0.93
5,PLEKVFVGPSADASNEEHRL,-0.883 ± 1.1
6,PLFLQCLWKNSLDLGMKDLS,-0.327 ± 1.4
7,PLLLNEVKRL,0.614 ± 0.29
8,PLRNRNCVPYPHDCLSTSLI,-0.816 ± 1.3
9,PLRSRSGVSL,1.09 ± 0.62
10,PLRTLPEQRCW,-0.006 ± 0.29
11,PLTKVFV,0.167 ± 0.82
12,PLWAPNSSNFAINRNQWRFN,0.11 ± 0.57
13,PLYLW,inactive
14,PMLFGVGRSFE,-0.377 ± 0.27
15,PMMLDDTPKRSKQPHWIGGH,-0.584 ± 2.1
16,PMYWLPIFLS,inactive
17,PNNKE,0.638 ± 0.33
18,PPLVHSAHYVMKILKSCN,-1.5 ± 2.7
19,PPMDIGLLPVRI,-1.69 ± 1.7
20,PQEFLFHTDQRSGCVITETS,0.179 ± 0.57
21,PQVVRRGTHKVGRDNG,0.186 ± 1.6
22,PRRHYGLRFGHGHLISVWLR,0.642 ± 0.41
23,PRSVVSTEPSGTVGVPKENK,-0.839 ± 0.62
24,PRTYMIRNWKSTNNSLASPK,-1.09 ± 1.5
25,PRVLHTSVGFCLFNEYCSTT,2.45 ± 0.18

row,Substance,amyloid nucleation score
1,PSRNLVRVDPFLGIRQMVSS,-0.096 ± 1
2,PSSKCGCWTTPEMIEGYRNL,-0.119 ± 0.51
3,PSSTNMGRDGWLDCQVHTFE,-0.009 ± 0.28
4,PSTREYFNCTKMAYYCIRRP,-0.005 ± 1.7
5,PTDRVVLNCM,inactive
6,PTIFFDYAHYQTGRVLMAL,0.408 ± 0.35
7,PTPILFCYQRCLGVYYMDET,0.198 ± 0.4
8,PTRLLLVSDRVTVHELF,inactive
9,PVDNYFIMTTHDKLNRPGHD,-1.85 ± 1
10,PVHNRVINRILGSSLEVLEN,-0.123 ± 0.31
11,PVLWASMVN,-0.243 ± 0.49
12,PVRVYIGGEDACMKSTKHMY,5.65 ± 0.085
13,PVSFRILIVEVGLLCRLGAI,0.165 ± 0.75
14,PWISFTKYKTLSYETHPGWF,0.544 ± 0.79
15,PYAWSVNC,-0.579 ± 0.4
16,PYFINST,1.75 ± 0.53
17,PYLGHR,-1.55 ± 1.4
18,PYLSRTRISIVNMCSICGLI,1.34 ± 0.44
19,PYTWTTTVPSAPKGLF,0.096 ± 0.48
20,PYVEIAWS,-1.19 ± 0.85
21,PYWLINIQEVTTD,0.654 ± 0.48
22,PYYRLHANLPDEKRSTAILI,-0.378 ± 0.55
23,QAFGRLSLATQPLLMEPRRL,0.868 ± 0.41
24,QAKPLMLNV,-0.96 ± 1.9
25,QAVSRHNGSSVVTVRFKLSP,1.49 ± 0.52

row,Substance,amyloid nucleation score
1,QCSLRPVPRKDALSFLGLML,-0.363 ± 0.35
2,QCTVGASMD,0.169 ± 0.34
3,QDGPIIFWDMVYFSFYFKH,-0.925 ± 1.2
4,QDKAVIANNRWTKMCGRLDC,1 ± 0.59
5,QDRHYRNAKGSNSCYIRRKS,1 ± 0.35
6,QDRYR,0.156 ± 0.56
7,QDWHDYLYGKFIGNNYGKYI,1.44 ± 0.47
8,QELPFRRSYNLSNCSDNWHS,inactive
9,QERTMVLMLHMYYSGCAILM,0.761 ± 0.56
10,QESEMVCDLSGMAFLSGLVY,-0.442 ± 0.51
11,QFCMKSTPMSHFR,-0.772 ± 0.61
12,QFFQPCVKC,1.06 ± 0.57
13,QFHFMPWIDMSFSHLVHVYG,-0.741 ± 0.29
14,QFSYTRIEVVSDVHLVNVVN,0.373 ± 0.3
15,QFWHYGF,-1.04 ± 2.4
16,QGLLPDIYVALSLCGVPGTD,-0.262 ± 0.59
17,QGLSGDDCLHGNFKFHMSET,-0.243 ± 0.32
18,QGWSMVWYYSLESEETT,-0.377 ± 0.6
19,QGYASLGTQRTRPGYGKFGE,0.382 ± 0.27
20,QHHLIGMVRSIGEKMLAKNQ,0.094 ± 0.34
21,QHKTRQYHVSPVRVTIL,0.135 ± 0.65
22,QHWAGIPDLAF,0.547 ± 0.64
23,QIFYSFTLYCNRNGWRDVFL,0.269 ± 0.59
24,QIWPKAWPLFWPRNRKYANR,-0.077 ± 0.26
25,QIYKVDGYFQVGILLLSPVP,-1.29 ± 0.95

row,Substance,amyloid nucleation score
1,QKNCT,1.01 ± 0.34
2,QKVHANSMM,0.973 ± 0.9
3,QKWVFVEVCSCRVSLTNLVL,0.233 ± 0.35
4,QLETTLFGNAEACLFSSKGR,0.522 ± 0.49
5,QLLSLCLDQTVKRRYFNFRA,-0.073 ± 0.26
6,QLSDVSRWSFIWLKGGQRST,0.334 ± 0.84
7,QLSVVNFKEM,-0.219 ± 0.7
8,QMSVAG,1.38 ± 0.28
9,QMVQYSRKSITFLGRPVLFS,0.291 ± 0.55
10,QMYVVMLVGVLFCWGTPYRL,0.301 ± 0.39
11,QNGRASVYFTGLAILYILID,1.02 ± 0.25
12,QNKSWAG,-0.509 ± 1.7
13,QNPLMRNYNPRFCHCGLSAP,inactive
14,QPALPSGPVDQS,0.42 ± 0.35
15,QPILPSPIRWFEESMDLVWG,-0.542 ± 0.4
16,QQYSVDSRCTTVRYGLYMDM,0.662 ± 1.1
17,QRFWYTGFGSVPIQDIEVGI,0.328 ± 0.32
18,QRISWDFSWCRASWMPNLR,0.062 ± 0.34
19,QRLCNQWMSDKLQY,1.84 ± 0.67
20,QRWLWKRNLDCQRDTSL,0.514 ± 0.75
21,QRYKFLCLRRVENFGGYMSA,2.54 ± 0.24
22,QSDMGIIP,0.153 ± 0.47
23,QSGVNNTVLVCIVQSFSSLM,5.5 ± 0.082
24,QSNPSPISNMLNPDCLYKNG,-0.013 ± 0.2
25,QSSLMLYDERRSNWIKHLAT,-0.232 ± 0.37

row,Substance,amyloid nucleation score
1,QSTMIASMRYSFFACAVLYI,0.074 ± 0.51
2,QTDSTVGD,-0.522 ± 1.4
3,QTRRYTVNCLL,inactive
4,QYCAKSVSFRWCHLSRWLMP,0.401 ± 0.71
5,QYMKLGFNPCKTMVVLFLCC,4.16 ± 0.062
6,QYTAHMLCLALLYRFEWNEN,2.24 ± 0.27
7,QYVMSLITVQQYRSEFSAVM,0.263 ± 0.25
8,RACLQRWPNMRITCC,-0.005 ± 1.2
9,RAELTSTTISTASVFGCGIM,5.17 ± 0.07
10,RAGTLLPVLLDKVKRCSKLW,0.222 ± 0.7
11,RAKSGLMNGDGYRNVAQGDD,0.155 ± 0.43
12,RALALEPNSI,inactive
13,RAPTFMMNLDG,3.34 ± 0.12
14,RARDV,0.167 ± 0.38
15,RASKFGLLGHMAYSIYHYVM,-0.974 ± 1.7
16,RASRMHGQGPLKNVWEGLYQ,0.119 ± 0.98
17,RASWNMNFSNFFDKMCRIPS,-0.334 ± 0.35
18,RAVANCVLSLCYWNCCLYRY,-0.343 ± 1.4
19,RAYTCRCEFAQGFVYNLIFS,5.4 ± 0.079
20,RCCLVMCWCLCKNYSN,5.38 ± 0.049
21,RCDNLF,0.037 ± 0.39
22,RCGCRRVVFDGFIGIGALRA,0.298 ± 0.6
23,RCGGSRDSACLANWIQFTMQ,4.67 ± 0.064
24,RCGVRLF,-1.31 ± 1.2
25,RCILRSTSFRAVAWM,0.771 ± 0.67

row,Substance,amyloid nucleation score
1,RCINGNIYNKSW,0.18 ± 0.26
2,RCLRTALCISMSGWCSYSNW,1.27 ± 0.15
3,RCMDHCSLDIQVRVLCKVSV,-0.709 ± 0.66
4,RCNAKWL,-0.426 ± 0.77
5,RCSCFY,inactive
6,RCSQVGEFHFGPTDARLMGK,0.245 ± 0.39
7,RCSSGSRICAMRLLGYSSYI,-0.066 ± 0.75
8,RCTSSPFVVL,0.668 ± 0.82
9,RCYSFRSHRRNFNIYVLSKW,inactive
10,RDEVGIVHRMSEPKRYGGIK,-1.11 ± 1.5
11,RDGAVFYFMEVRVSYRFLTN,-0.392 ± 0.7
12,RDGPSK,-0.422 ± 0.33
13,RDKLYA,-1.2 ± 1.5
14,RDLAPVLRYVPNESKAGVGV,-0.626 ± 0.53
15,RDVTCRLYLMLWS,-0.641 ± 1.5
16,REPACYSKVTLADKYRLVSE,1.26 ± 0.74
17,RESVINIR,1.28 ± 0.46
18,RFETIDANKVILSVKCRWAK,2.56 ± 0.17
19,RFFSGLIVHNLLCLCRPPNP,6.58 ± 0.078
20,RFIFIQRVNRVFLQDSWKMV,6.39 ± 0.075
21,RFLIGWFFSFLGCFLKRDSW,-0.571 ± 1.6
22,RFNLCNGFMGIAKNCICIWT,1.41 ± 0.45
23,RFNTWFVNYLCHPLYSLEG,5.55 ± 0.064
24,RFRRSLLMYYGTTSVGLLRP,0.664 ± 1.2
